This data set in a line: label from the status in PepcDB records.
With “MKKRIKELTDLLNRYRYDYYTKDAPSVSDSDYDKLYRELVTLEQSYPEYVLQDSPTQQVGGTILKGFEKYRHQYPLFSLQDAFSREELDAFDKRVKAEFPNATYLAELKIDGLSISLSYENGFLQVGATRGDGNIGENITENIKKIKDIPYQLSEPLTITVRGEAYMSRQSFKAINEARQENGETEFANPRNAAAGTLRQLDTSVVAKRQLATFLYQEASPTARNQQNEVLAELADLGFSVNPYYQLTSSMDEIWDFIKTIEAKRDQLAYDIDGVVIKVNSLAMQEELGFTVKAPRWAIAYKFPAEEKEAEILSVDWTVGRTGVVTPTANLTPVQLAGTTVSRATLHNVDYIAEKDIRIGDTVIVYKAGDIIPAVLNVVMSKRNQQEVMLIPKLCPSCGSELVHFEDEVALRCINPLCPSLIQRSLEHFASRDAMNITGLGPAIVEKLFLAGFVHDVADIYQLTKEDFMQLDGIKEKSADKLLAAIEASKSNSAEKLLFGLGIRHIGSKVSRLILEVYGDISALLTAKEEEIARIDGLGSTIAQSLTQYFEQKTAAILVDELKTAGVNMHYSGQKVNSDAALFGLTVVLTGKLNQLNRNEAKDKLEALGAKVTGSVSKKTDLVIAGSDAGSKLEKAKSLGIRIEDEDWLRQL”, the protein production result was “failed”.
As for “MPDPKPEVLDFLLSRRSRPAKTLALPVPDRAALAPILTGALRTPDHGKLEPWRLIVLEAGAMPRLAALADARAEALALDPDKSAKGRAQFAQSHLAVVVVARPEPSDKVPEIEQILSAGAVCLSLLNAAQAAGWGANWLTGWPAYDRGFLREGLGLAETEFVAGIVHIGSETVAPPERPRPDVASLTTWVSE”, the entry is “failed”; as for “MDSEKALELVKHGATLLFLDVPQYTLVGIDTQIFAVGPAFKGIKMIPPGIHFVFYSSSTRDGREFSPTIGFFVDVAPSQVIVRKWNQQDEWLTKVSEEEEERYSQAVRSLEFDKNLGPYNLKQYGEWRHLSNYITKDVVEKFEPVGGEITVTYESAILKGGPKTAMEIALDTQMKKSKFTTSSTEQPKGNRFYYTSIPRIIKHKGMSGQELTSMNLDKTQLLESVLSKEYKDSEDLLLGELQFSFVAFLMGQSLESFMQWKSIVSLLLGCTSAPFQTRSQLFTKFIKVIYHQLKYGLQKENSGPETGIHALLDDSWLASDSFLHFLCKDFFALVEETSVVDGDLLSWTRKFKELLENRLGWEFQKKSAVDGIYFEEDDEYAPVVEMLDESHGEYMDKTT”, “failed”.
As for “MGGPAYDCLTNPLGAVRFSFVNALSSGYDPASSVGKDWGVVDLFRHYFSDESAISQVPILDSSSIKWVQPKTLVRFRGMIQDMLGNEFYAGAYKDDSTWRTNKYSDVSQFPEGSSTEIQVWERRLLYCVPVPGKNQWTECSSQELKNRFLDLTGQNREKRVRVDEEMTDSMDSSKVGEATSSASESQVPQTSGIPPATSADSLPCLVKIYDSPESDLKLNDVVEFLGVLTFDPIVMMDTDTLDENSDALSEAESVQMPSGKQPKSPQIFKEIRESLMKYLTGLLGNDHIAAQFLLLHLLSKVHGRVDNVAVGKLSLNLIHLNKESMSIFGTQLSGALKSLLPFTQSIPLTIEYLNTASFGPKKDYGINRLMPGVLQIADGTHLILDETELQPGTLNSVGVENANLLKNLLECQKVEYDFQYYKMEMATDVQMLIFSEGKSNIMPADLVLPLQPSQVNSLEVITPETAETWRCYLATCKSLSHSIGQELQQVVENDLVAARQTDRSLGSQDLSRLLTMARMMSVSYGETTLSLEHWQMVLELERLRKERLK”, the entry is “failed”.
As for “MRDITAQGSNVEEAIQNALATLETTRDKVEVEVLDEGKKGIFGIGSRLAMVKVIEKEDGIQVAIDYLLDVATKMGAVITIDVEEVGKDVKLQIKGESLGMLIGKHGQTLNALQYLTQLIANKTTSQYKNIIVNVGDYRERRHETLVLLANKMADKALKTKRAVHLEPMPSFERKIIHAILSENEQIETHSEGRDPYRYIVIKPVKK”, the protein production result is recorded as “failed”.
Next, “MGHHHHHHSHIEETTMTTQTPAPIQAPSAILPLPGQSVERLCVDPRHRQGPVNLLSDPEQGVEVTGQYEREKAGFSWIEVTFKNPLVWVHASPEHVVVTRNRRSSAYKWKETLFSVMPGLKMTMDKTGLLLLSDPDKVTIGLLFWDGRGEGLRLLLRDTDRFSSHVGGTLGQFYQEVLWGSPAASD”: “failed”; “EDVKEFEREETQDKEESVESSLPLNAIEPCVICQGRPKNGCIVHGKTGHLMACFTCAKKLKKRNKPCPVCRQPIQMIVLTYFP”: “failed”; “MSILLSKTLRELIFWMAWIIIPLIMEIIPAFGGFFILVKKSFNSNREGFIGTLPEITLIIPIYNSEATLKGCIESIYNCSYPTRLIDLILVNNMSSDDSFQVFSQCQKEFCGLSMRYMNSKQGKSKALNMALFNSAGKYIIHIDSDGKLHYDAIKNMIVRFEKNPNIHCMTGAILSDIEGIEKTHKRFLKLIRRCEFFEYAQAFLAGRNFESEINSIYTLSGAFSAFRKSTILKTQLYNSKTVCEDTHITFQVRRLLKKKVYLCENSIFFVDPIENLNKLYTQRQRWQRGEIEVSHMFFKNKMNSPLGFFHNFMIRVVMYDHTFAFPRMIWYFAIIFLFFMNYPVKLVVGSLVIIYMLYVLSTFLFYLNVRIYLKEYKSIREYYKARWGYIFLMPIYNFVVFWIRFAGIINSIKIKSKWKTLTLNDEWTAFLKVIQSDFRMIGKGINKIRRLVND”: “failed”.
As for “MNINIEDLIFSLDIGTRTVIGTVGSIKDKKFSVIAEKHTEHEERAMVDGQIHDINLVARAVNKVKSQIEEELGFELKDVAIAAAGRFLRTTAVRSELNIDEDKEIDKDVIRGLELTAVKKAQDEVNKETEGKLYCVGYSVKNYFLNGYAISNLLSHKGNSIAVDVIATFLPRSIVESLYAVMNKVNLNVKSLTLEPIAAMEAAVPKNLRLLNIALLDVGAGTSDIAISSKDTISAYGMVPFAGDEITEVIAQNYLVDFNTAENIKRSCNVDTEIKYTDVLGIENTIKSEEVIKLIQPTVQKLAEEVANKIIELNGEKSPNAVFIVGGGAHTPMLKDLLAENLKIQPQRLAIKGRESVTDCICTDNSLGSTGVTVLGIALVAIRRFGNDFIDVILNDNIISLFNARVHTVKDVVVQAGVNPKLLIGKNGKNVRFILNGVKRVAFGTVAKNAEIRINGLIANIDSEVKENDKIEIKYAENGIDASPIIKDYVKNLYSLGFFIDDEVVNLEPIFIINGNKVTIDTEISEGDEVETVYPSKLIHYIRYYDSDLNKEYYINNIKLDENYDIKEGDRIYTKPKEEEQEVEIIPLAEEDKEEQEVVSHPKEIEKEDDDVNTIVVVVNGNPIKMSGKEKYKFVDIFDYFKFDLTQVKGNLVLTLNGEKVSFFDELHDKDIIEVKWE”, the entry is “failed”.
Next, “MEKSAGRGRPSVSVERIVATALEAVDEVGAQAFNMRMLAERLGSGTATLYRHFASKDEILIYVVDSVLGELLADQPEAVELVPQGQGSEGYSWQKACASGAERLYGVLRRHPGILPLLVSQIPIGPNGLKRREQGIALFLANGFPAELAARAYTSVAHYVLGFAIQQHSSASSEAAEGEELVEFFAALDASEYPAIATAGRHLPGISVEEEFRFGLKLIIDGLELAASAWRKADGC”: “failed”; “HLGIPPSGALDQYALRAANLLVGNAPTAAVLECALLGPQLEFQRDALVAVCGARMTPRLEGAEMPLDTSFRVRAGQVLGFDFIRAGARGYLAIDGGIAVPEVLGSRSTYGLGAIGGLQGRRLAEGDLLPLGPASPSAVEGLALPRSLQVEVGGEVSLRVVPGLYVHRLTPDAVERFFAETWTVGSEADRTGYRFKGGTALRFEPREQPFGAGSDPSNIVDACYPIGSIQVPGGLEPIVLHRDAVSGGGYATLGTVISPDLNRLAQMQPNQKGRFVAVSLEEGLEARRRYNWQ”: “failed”.
As to “MFKSVQQRTIQNGQVIPFYHSTNELAHIQNILQSQTPLVSLKEINKFRQLIARASVGEYFLIQSGDCAENFYECDKDTTHAKLDFIRHLATFFHQKTGCSVIQVGRIARQYAKPRSNQYEICQNKRIYSYFGGMINQSQETQRRPNPWRILLSYNCSASIYRKINQWNRGINPEQKIYTSQEAFLFNYEQSLTRWDERTGLYYNLSTHFPWLGKRTVSSLQHINHLKKIANPIAVKIGPDTPIKNLVKVINELDPSYIPGRITLIPELGAQNVYHILPQLIDAVKRTDRTVLWSCDPMHGNTETLSSGIKIRKLSNIVEEIKNSFFIHRKMGSQLNAIHLEATHQNVTECMDYKSSHCESISDLKKNYKNLLDPRLNYAQTLHVIQCVAKYYANS”, the protein production entry is given as “failed”.
As for “MLTPRFDIQPAVSVILPTFDRAPLLASAIESVVAQNFAEWELIVVDDGSSDETFEIVDGYLNQHANIRYMKHRNRKAALSRNAGIQAAFGRYITFLDSDDLYLPEHLESRLHLLESMPEVRLISGGFVCEGDPWVRDRDDPEKLIHVSECIAGATMFGRRELFLDIGGFRALDYAEDTDLWERAARSHKVLKIDQPVSYIYRRSPGSITRTYKPAKPLEHHHHHH”, the entry is “not failed”.
On to “MKLTGQAIDGFLRKPDPKIRCVLVYGPDEGLVRERLEQLARTVVADPKDPFRITDLSGDDLRADPARLADEAAALAFGGGRRLVRLRQMTDQHAPRLKAFVEAPVGEALVLVQGGDLTARSALRKLFEGASAAAALPCYADEGRSLETLVRATLAEARLAAAPEVIDYLVANLGGDRGVSRSELAKLVTYCGKATSVSLDDALACVGDSAQIGLDMLTNAVAEGDSATALRALDRLGQEGMATVALLRGLTRHFTRLHLVAGLIAGGTSVDQALAALKPPVMFKLAPRFRSQVQRWSAERLAQALDLLLDAEIDAKSSGLPERALVERLLLRLARGAKTASRLEHHHHHH”, for which the protein production entry is “failed”.
Next, “MLIGPYTHDAFMEEARKFHGYPAPGLIIGGYMVEMARRALPEGILFDAISETGQCLPDAVQMLTPCTIGNGWLRIRNFGLYALSLFDKHTGVGVRVHIDSQKLERFPEIKAWFLKLKPKREQDTERLQQEIREAAFDLLTLRPVTIRPDALGHGGKGGTIVACPLCGEYHPSAFGGICRSCQGESPYEVGPGLSFPGQPELRAVPVEEAVGKHALHDMTRIVPGESKGAEFVAGQELGAGDVCRLQMMGRNRVYVREETGDMQGWVHEDEAARAFGELMPGDGIEPEGPVREGKINFRATRDGVLVVDTRRLEQFNLVPDVMCATRHTHGVVLAGTRVAGTRAIPLYLSTLNLAKATTLLEGGPLFSVAPMRKAKVGVLVTGTEVFRGIIEDKFAPIITQKANQLGCDMAGTVIAPDDAPLITRGVHDLLAAGADLIVTTAGLSVDPDDMTRKGLLDAGLTEMLHGVPVLPGTMTLIGRIGGAQVIGVPACALFFKTTALDLLLPRLLAGLSVTRLDLARMGHGGLCMECRSCSFPKCPFGRG”: “failed”; “MQKIALCITGASGVIYGIKLLQVLEELDFSVDLVISRNAKVVLKEEHSLTFEEVLKGLKNVRIHEENDFTSPLASGSRLVHYRGVYVVPCSTNTLSCIANGINKNLIHRVGEVALKERVPLVLLVREAPYNEIHLENMLKITRMGGVVVPASPAFYHKPQSIDDMINFVVGKLLDVLRIEHNLYKRWRG”: “not failed”.
With “MKPTMMTYINEEEEMCRVILADFQTNAEKLESLVKNGAKEWLILATGSSLNAAQSAKYYIENLADVRITIEEPFNHLYYEKLSSHLDLVIGISQSGQSTSTISALERVKKEASVPVVALTSDVTSEIAEFADITLDIGSGKERVGYVTKGFTATVLTLMLTGLHFAYKTVQIDETRFNNEISAFSRAIDAIPATIAETEAFYERWQEEFATAPKFTAIGYGPTVGTCKEFETKFSETVRVPSQGLDLEAFMHGPYLEVNPQHRIFFLETASAVTERLVLLRDYESKYTPFTYTVKFGKGEDDRTLVIPTDLDEYQAPFLMILPFQILAHHIAELKGNKLTERIYTDFGVAMKSKTKPGDYA”, the protein production result is listed as “not failed”.
As for “LLADGQLQDWHDSTVYEIYHHWRHRYPKGVFENREHLFSAEIPRDTPIALQPEEHVSYGWFDMEEAAEKVFSPSNRRAILELGRFLGKR”, the entry is “failed”; as for “MGKDAKAGGKGKGKQASGSEEAPSKGKGKAGKAADGLGTCTYVKARHVLCEKQGKINEAYKKLQDGWLSNGDKVPPAEFAKIAAEYSECPSGKKGGDLGWFPRGKMAGPFQDVAFNTPVGVTSAPFKSTHGYHIILSEGRKN”, “failed”.

Source of the values: a protein production outcome set (Wang et al. 2014).
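Note: failed if final PepcDB status was selected cloned or expressed and not failed if soluble or beyond.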
